# ± gives the uncertainty stated by the source.
# Assay: amyloid nucleation score (Sup35N fusion, yeast selection) (log enrichment); library NNK3; higher = more nucleation; inactive = no reads after selection
# Outline: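 After 24 hours of induction with 100 μM copper sulfate, psi-negative yeast expressing peptides of 20 random codons fused to Sup35N were grown for 7 days at 30°C on medium lacking adenine and uracil. Input and output plasmid inserts were sequenced with Illumina, and sequences with under 100 input reads were discarded. Scores for nucleation are the DiMSum log enrichment of output over input reads, centred on the mode score of non-aggregating sequences.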
row,Substance,amyloid nucleation score
1,QYDIVLCGQWYGLSKGLRYS,inactive
2,IFFVTVYQTNHHKSTLRCTN,2.33 ± 0.087
3,YRPRGERLRFMYCY,inactive
4,QSSCGIMQPYRQWMPYSTYG,inactive
5,FNMFVKNN,inactive
6,DRFSYFAIFPWYRMCYGMLE,inactive
7,YRNELCYIQRRYLPYGRWTA,inactive
8,TFFVLGCLINLLGMKWTGWV,inactive
9,NWCLVYRPVKL,1.54 ± 0.1
10,TVVKPNRLAYHSQLFCKAHT,inactive
11,KSMSLKTFCGWGETQYVFFV,inactive
12,VSLFGCKIMLRMKFGVCLSG,inactive
13,TMTRSLYSVVSFKRFNSCLV,inactive
14,KDRHVSYFGLYKLGWRYTPS,inactive
15,VIGRTASDGVRCCRVGMMRR,inactive
16,EYNPWFDCWICSEVSATNNR,1.96 ± 0.077
17,SPCIVLVQKLCGLGCRFVSV,1.68 ± 0.11
18,LLTFALIL,0.462 ± 0.19
19,SGEYSQRKGSCKGHNGSSRS,inactive
20,VCLHFMGLRVAFLAGMFIII,inactive
21,VQSSPVYMFMTNNSF,1.8 ± 0.056
22,VDKWSCVDNFFSY,inactive
23,SCGLLWCD,-0.43 ± 1.2

row,Substance,amyloid nucleation score
1,MYWTNRHLQNIFWVKRNCGM,inactive
2,IYDAGFVYQIGTEEQVCNRV,inactive
3,VSACLNSGGQHSQRHANMAV,inactive
4,FSSLGANYNHEILKGCGVGS,inactive
5,IDVMEYMLASYRVSWYRGLA,inactive
6,YNLDDIDSITLYLAVSLCKV,inactive
7,CGVYPYPWVVMFTDCKMNRW,inactive
8,VRNKLNCKRSGA,inactive
9,KVMTDIPDV,inactive
10,LNRANNGVVYQMGVRDFQSS,inactive
11,DMIINILRSDYQWWSAN,inactive
12,VGFILWFGGHCGS,0.659 ± 0.23
13,LEYLKV,inactive
14,TMLWYLDDSSSNIREKSHGM,inactive
15,DLIRQRAETPKMVISWR,inactive
16,MVMQIYIDDRPSMKVLYSEM,0.485 ± 0.21
17,LWSWDDIHPFCLILLLTRCP,inactive
18,LMQFLAQLTSLSLSLLEVIW,inactive
19,SALPE,inactive
20,QPVTRLFFISGSRGDLVEKH,inactive
21,LFLMLG,inactive
22,SLHYEHLAGMTCRLVLEYLI,inactive
23,FLTFRPSLSTRHLFLMESHT,inactive

row,Substance,amyloid nucleation score
1,TETASNSTRYSFL,inactive
2,NRQSLGIRSYFC,inactive
3,ILTCFFSQEMIWHFLDTYDY,0.522 ± 0.24
4,VIRQVCYYRLGEWLLGAR,inactive
5,LSMFGGNASALL,inactive
6,IQGLCCRHAEFKNY,inactive
7,RSSVYGQLILVPHYFDCLNL,inactive
8,QLRASA,inactive
9,TRMSVQLISFAKLTFFSACM,inactive
10,VEAMQVWDSSFMSCTNLFTS,inactive
11,DLFKTVPYRWGFRYHIGIYM,inactive
12,SYNVFPIAEDKNHWNTFC,inactive
13,VSLKVFYGNKDARNRDIPTL,inactive
14,RISLCVHFILFCFPSSRQSL,0.815 ± 0.12
15,LNLLSSSMIWSFVIGNRRVY,inactive
16,VYRYFASKIIKGIFSRCCTF,inactive
17,TTRKNLKSGLVVSL,inactive
18,RYTMAVWRLMSCNSVKSVAL,inactive
19,SSYSWMGVFIYLDRIINYTH,-0.339 ± 0.63
20,RPHRAWALAVRVASDVCQNS,1.11 ± 0.11
21,RKLGPSHQWNHRWGFSVRSC,inactive
22,VFIGSVGFSDLWKLSVAYNY,inactive
23,LLAMPNQRWGTTLLYVQDWF,inactive

row,Substance,amyloid nucleation score
1,TNLLM,inactive
2,WIVVDKSNQCGLGYVLWYNF,inactive
3,IHCLLLDRVTNLFLTMQAG,inactive
4,MKTSNYMVRQCAGIPASTNR,inactive
5,RSILLEGVLAFM,inactive
6,LHKTTMYFRKISLRRFEMLL,inactive
7,CTLIAKHNQA,inactive
8,LLVMSQVKYRHMSAAPA,inactive
9,LEYKYVGLSKFDALIRQWFL,inactive
10,ICRHLSIGG,inactive
11,TQSFWIARYTQLVCPRLCQN,inactive
12,NFIIWWVLDISVERIRINEV,inactive
13,VKDYNYKFWALPSVPREWVF,inactive
14,TTSLSIGGLIFRLVL,inactive
15,LLMKMHDAIAG,inactive
16,FGVSFKYFCVQEQLAKDSVA,inactive
17,SSPRPLCPDLRLVDIIQILI,inactive
18,FFLTHGCTCEDALKFGWVCY,inactive
19,SRHFTIEVSQFCIISQGVNL,inactive
20,FVGRFCMFNLGRCLPIVLGS,inactive
21,YKYRSLYFSRYIVLYVVGVL,inactive
22,SRVDPLLRNWDCRFSSLLL,0.935 ± 0.096
23,IRFSCSSSG,inactive

row,Substance,amyloid nucleation score
1,DILFTSIS,0.257 ± 0.41
2,FYPLICQRLKRSNIPGVWP,inactive
3,CSILACSA,inactive
4,KFGDPIRFWVTYYTNRSWSG,-0.732 ± 1.4
5,VGLISGVCDDGSGSMSSRLW,inactive
6,RYYNYVSHIPAHRAVTLSAT,inactive
7,TRICMCFEFVNTSY,inactive
8,FSIIKFYWAEYWARRGEIVR,inactive
9,QLCFGVMLRCSCCGKQVWEK,1.84 ± 0.1
10,PLTPD,inactive
11,KISGNFKILDWVGNFSDGNS,inactive
12,ANWVVVLLNRQASLGRFAYV,inactive
13,NSYFLSRTLLSTSGRRTCRM,inactive
14,IHCSSWFELS,inactive
15,FVCLKNFIFNRYKADGD,1.17 ± 0.19
16,MQYLIYPTWLVIELNC,0.684 ± 0.13
17,RKGSVKEFRYNMSNLESVCS,inactive
18,ILMQNSETWSLYPNTA,inactive
19,IPYRVFRRTLNLVENMMCRM,inactive
20,GDDIEILSFEVWRVFSKSWS,inactive
21,LREMGLHYWGD,inactive
22,STDQSASRVSERQLLCLPLT,inactive
23,RRFKQCNHILACR,inactive

row,Substance,amyloid nucleation score
1,TARDESSGV,inactive
2,STLQVVEKPKIAPSLRCDSC,-0.169 ± 0.51
3,GVMGYSSYSLSAENTVYSPW,inactive
4,GGNICPIRPLSRKEWELGRH,-0.566 ± 1.4
5,WGMSRLFVYFPVILLMISLT,inactive
6,AMLLCTYFRKAVYLNAK,inactive
7,VIFISILPLRKCSDKWEDNN,inactive
8,FVYYANYQYFRPFYKMSWHQ,1.51 ± 0.078
9,CVFRYLVHHERMSYILNAGC,inactive
10,GRSFCVAMVVIEGVLYRDLS,0.441 ± 0.32
11,TQLFGGFPTEGQMMYPPRSS,inactive
12,KGSFFLDCFGARRRIGLVKF,inactive
13,GVSVMSGQAMYVRKRSALEM,inactive
14,DHQLSGGDGVGSMYSTEGKL,inactive
15,MILLLGLDRKHSSGESKALI,inactive
16,FKDCED,-0.328 ± 0.6
17,IYCTFAAFSHCQQWKNLFWR,-0.456 ± 1.1
18,YLLSL,inactive
19,RLFMDLYVFTTRVFNIFQFV,inactive
20,NVLALECVRDWT,inactive
21,CLVWG,inactive
22,AIVFNFDYLLYLQNRSNLMH,inactive
23,VVLWWS,inactive

row,Substance,amyloid nucleation score
1,SMDVLRFDQYRWLYRVFNLH,inactive
2,FHTLLLCSDVSSARWFADWF,inactive
3,WHVEIIVHNMSFSILKNVGR,1.65 ± 0.1
4,FSIAMFQANSGYASR,1.25 ± 0.14
5,RCTGRLRTVGRSSMLEFEFV,inactive
6,VFPKSYTPDQTFPCNSSLAK,inactive
7,GWRCCWIIWADAVYE,3.05 ± 0.075
8,MLVATL,inactive
9,LPAEMELVWHRRMNLP,inactive
10,CRYYNSC,inactive
11,NIRKPDMYLITVCWESSQAL,inactive
12,MACKLSTRKSSNWGKHLLCY,inactive
13,TNNRKRLYYWFERVTSE,inactive
14,GIRVSLGVSFRECFNNSVSR,2.43 ± 0.053
15,IRVRLINSGAL,inactive
16,SPVHLCMDLGSS,inactive
17,PCFEFSTSVRVFSDAKGLSV,0.234 ± 0.25
18,SCKFITFRGGQVQLVNDEGM,inactive
19,ILNYLRENCQKVTGRGA,-0.679 ± 0.96

# Source: the supplement of paper PMC12042874
